{
  "source": "paper PMC3145889",
  "about": "(Oncogene, 2011)",
  "key": {"[1]": {"molecular_target": "HMG20b (human (endogenous in 293T and HeLa)) (UniProt Q9P0W2)", "assay": "co-IP"}, "His-HMG20b": {"molecular_target": "T1, His-HMG20b (human, UniProt Q9P0W2 1-317)", "T1 sequence": "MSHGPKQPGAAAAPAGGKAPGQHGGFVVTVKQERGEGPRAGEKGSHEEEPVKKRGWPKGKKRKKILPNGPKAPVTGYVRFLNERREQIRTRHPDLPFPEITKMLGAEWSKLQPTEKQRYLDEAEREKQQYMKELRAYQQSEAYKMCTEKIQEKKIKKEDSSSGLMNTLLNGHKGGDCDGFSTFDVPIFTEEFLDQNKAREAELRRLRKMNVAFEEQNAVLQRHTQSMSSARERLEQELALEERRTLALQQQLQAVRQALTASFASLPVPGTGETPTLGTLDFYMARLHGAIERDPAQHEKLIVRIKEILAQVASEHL", "assay": "pull-down"}},
  "note": "Ends that are not written are not given here.",
  "data": [
    {"molecule": "BRCA2, P51587 1-3418", "values": [
      {"measurement": "fraction of the protein present in the complex", "setting": "[1]", "value": "< 5", "unit": "%"}
    ]},
    {"molecule": "YSVIENSALAFYTSCSRKTSVSQTSLLEAKKWLRE (also: biotin label, position not given here)", "note": "[Biotin-labelled BRC5 peptide (BRCA2 1661-1695)]", "values": [
      {"measurement": "binding result", "setting": "His-HMG20b", "value": "binds"}
    ]}
  ]
}
